Patent US5663314

What was measured:
TEY peptide = target: T1, TEY peptide
T1 sequence (peptide): PEHDHTGFLTEYVATRWYR

S6 peptide = target: T2, S6 peptide
T2 sequence (peptide): RRLSSLRA

ETE peptide = target: T3, ETE peptide
T3 sequence (peptide): RRREEETEEE

[1] = target: Recombinant ERK2 expressed in E. coli (Rattus norvegicus (Rat)) (UniProt P63086)
Syntide-2 = target: T4, Syntide-2
T4 sequence (peptide): PLARTLSVAGLPGKK

[2] = target: Heat-denatured ERK2 (Rattus norvegicus (Rat)) (UniProt P63086)
[3] = target: bovine myelin basic protein (bovine) (UniProt P02687)
bovine myelin basic protein (bovine), sequence (P02687 whole entry): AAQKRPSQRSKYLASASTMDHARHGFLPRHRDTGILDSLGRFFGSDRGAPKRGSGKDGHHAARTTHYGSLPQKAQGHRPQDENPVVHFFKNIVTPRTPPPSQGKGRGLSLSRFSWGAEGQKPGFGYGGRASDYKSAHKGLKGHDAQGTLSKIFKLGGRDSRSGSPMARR

Band-3 peptide = target: T5, Band-3 peptide
T5 sequence (peptide): MEELQDDYEDDMEERR

RR-SRC peptide = target: T6, RR-SRC peptide
T6 sequence (peptide): RRLIEDAEYAARG

Phosphorylation (TEY peptide): 0.005 nmol/min/mg
Phosphorylation (S6 peptide): 0.07 nmol/min/mg
Phosphorylation (ETE peptide): < 0.005 nmol/min/mg
Phosphorylation (Casein): < 0.005 nmol/min/mg
Phosphorylation (Denatured enolase): < 0.005 nmol/min/mg
Phosphorylation (Kemptide): < 0.005 nmol/min/mg
Phosphorylation (Histones): 0.04 nmol/min/mg
Phosphorylation (Ribosomal S6 protein): < 0.005 nmol/min/mg
Phosphorylation (Protamine): 0.03 nmol/min/mg
Phosphorylation (poly (Glu^80 -Tyr^20)): < 0.005 nmol/min/mg
Phosphorylation [1]: 60 nmol/min/mg
Phosphorylation (Syntide-2): 0.04 nmol/min/mg
Phosphorylation [2]: < 0.005 nmol/min/mg
Phosphorylation [3]: 0.12 nmol/min/mg
Phosphorylation (Band-3 peptide): < 0.005 nmol/min/mg
Phosphorylation (Raf-1): < 0.01 nmol/min/mg
Phosphorylation (RR-SRC peptide): 0.005 nmol/min/mg
B1: MAPK activator 2 (MAPKK1b), 45 kDa polypeptide purified from EGF-stimulated A431 cells (enzyme)
chain: MPKKKPTPIQLNPAPDGSAVNGTSSAETNLEALQKKLEELELDEQQRKRLEAFLTQKQKVGELKDDDFEKISELGAGNGGVVFKVSHKPSGLVMARKLIHLEIKPAIRNQIIRELQVLHECNSPYIVGFYGAFYSDGEISICMEHMVIKGLTYLREKHKIMHRDVKPSNILVNSRGEIKLCDFGVSGQLIDSMANSFVGTRSYMSPERLQGTHYSVQSDIWSMGLSLVEMAVGRYPIPPPDAKELELMFGCQVEGDAAETPPRPRTTPGRPLSSYGMDSRPPMAIFQLLDYIVNEPPPKLPSGVFSLEFQDFVNKCLIKNPAERADLKQLMVHAFIKRSDAEEVDFAGWLCSTIGLNQPSTPTHAAGV
